Ends that are not written are not given here.
Legend:
Assay in all cases: PepSpot peptide array
peptide 1 = target: T1, peptide 1 (human)
T1 peptide: Ac-MSPSPTALFCLGL
How it was run: (§1)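 Peptides synthesized on cellulose membranes were blocked, then probed with a primary antibody followed by an HRP-labelled secondary, or with an HRP-labelled primary alone. After T-TBS/TBS washes, chemiluminescence was recorded as light units per peptide as single measurements. A secondary-only incubation served as the non-specific binding control.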

peptide 107 = target: T2, peptide 107 (human)
T2 peptide: Ac-PTEPPSSVAEFSE
How it was run: as §1

peptide 87 = target: T3, peptide 87 (human)
T3 peptide: Ac-AHSGTYRCYSFSS
How it was run: as §1

peptide 41 = target: T4, peptide 41 (human)
T4 peptide: Ac-SLAGRYRCSYQNG
How it was run: as §1

B1: monoclonal antibody hGP 5C4 (antibody, V domains shown)
VH: EVKLQESGGGLVQPGRSLKLSCTASGFTFSDYFMSWVRQAPTRGLEWVASISSGGASAYWRDSVKGRFTISRDNAKSALYLQMDSLRSEDTATYFCARGELDFDYWGQGVMVAVSS
VL: ADPNSTLLSASVGDRVTLNCTASQNVYKNLAWYQQKLGEAPRLLLYSANSQTGIPSRFSGSGSGPDFTLTISSLQPEDVASYFCQQYYSGNTFGAGTKLELKR
notes: Rat hybridoma antibody (Lou/C rats), heavy chain gamma 2a, light chain kappa; also called ab 5C4; anti-GPVI mAb 5C4
- LU (Light Units) (peptide 1): 149 LU
- LU (Light Units) (peptide 107): 71 LU
- LU (Light Units) (peptide 87): 93 LU
- LU (Light Units) (peptide 41): 8 LU
